Experimental data as given in patent publication US20060292140A1 (published 2006).

B1: murine Act-1 monoclonal antibody (antibody, mouse IgG1, V domains shown)
VH: QVQLQQPGAELVKPGTSVKLSCKGYGYTFTSYWMHWVKQRPGQGLEWIGEIDPSESNTNYNQKFKGKATLTVDISSSTAYMQLSSLTSEDSAVYYCARGGYDGWDYAIDYWGQGTSVTVSS
VL: DVVVTQTPLSLPVSFGDQVSISCRSSQSLAKSYGNTYLSWYLHKPGQSPQLLIYGISNRFSGVPDRFSGSGSGTDFTLKISTIKPEDLGMYYCLQGTHQPYTFGGGTKLEIK
notes: Mouse IgG1/kappa from the Act-1 hybridoma; also called mouse Act-1; ACT-1 (murine)
B2: derivative of LDP-02 (Fc-mutated) having a mutation in the light chain (MV4) plus a double mutation in the heavy chain (R38K, A40R) (antibody, human IgG1, V domains shown)
VH: QVQLVQSGAEVKKPGASVKVSCKGSGYTFTSYWMHWVKQRPGQRLEWIGEIDPSESNTNYNQKFKGRVTLTVDISASTAYMELSSLRSEDTAVYYCARGGYDGWDYAIDYWGQGTLVTVSS
VL: DVVVTQSPLSLPVTPGEPASISCRSSQSLAKSYGNTYLSWYLQKPGQSPQLLIYGISNRFSGVPDRFSGSGSGTDFTLKISRVEAEDVGVYYCLQGTHQPYTFGQGTKVEIK
notes: transient COS-7 expression; also called M4V / R38K, A40R derivative

Columns and labels:
human α4β7 integrin [1] = molecular target: T1, human α4β7 integrin (human, UniProt P13612 34-1032; P26010 20-798); assay: cell-based or functional assay
human α4β7 integrin [2] = molecular target: T1, human α4β7 integrin; assay: flow cytometry competition on HuT 78 cells; competitor biotinylated LDP-02/3A9/Lot#1 held constant
Method: (§1) Unless otherwise indicated, all reagents were diluted in 0.15 M PBS/1.0% FCS/0.1% sodium azide. The varying concentrations for both antibodies ranged in half-log increments from 2.0×10⁻⁶M to 5.0×10⁻¹¹M. After removal of the primary antibodies, the cells were then suspended in 100 μl streptavidin phycoerythrin (Dako Corp., Carpinteria, Calif.) diluted 1:200. After washing in 200 μl PBS, cells were resuspended in 0.5 ml of PBS/1% formalin and refrigerated until analyzed. Samples were analyzed on a FACScan (Becton Dickinson Corp., San Jose, Calif.) using a 488 nm laser to excite phycoerythrin. For each sample, a minimum of 10,000 cells was analyzed and MCF calculated. All samples were performed in duplicate. The IC₅₀ was determined as the concentration of unconjugated antibody producing a 50% reduction in the MCF from the biotinylated homologue antibody.

human α4β7 integrin [3] = molecular target: T1, human α4β7 integrin; assay: flow cytometry titration of biotinylated antibody on HuT 78 cells, half-maximal mean channel fluorescence
Method: Unless otherwise indicated, all reagents were diluted in 0.15 M PBS/1.0% FCS/0.1% sodium azide. […] After washing in 200 μl PBS, cells were resuspended in 0.5 ml of PBS/1% formalin and refrigerated until analyzed. Samples were analyzed on a FACScan (Becton Dickinson Corp., San Jose, Calif.) using a 488 nm laser to excite phycoerythrin. […] All samples were performed in duplicate.

human α4β7 integrin [4] = molecular target: T1, human α4β7 integrin; assay: flow cytometry competition on HuT 78 cells; competitor biotinylated murine Act-1 held constant; experiment 1, lot 2
Method: as §1

human α4β7 integrin [5] = molecular target: T1, human α4β7 integrin; assay: flow cytometry competition on HuT 78 cells; competitor biotinylated murine Act-1 held constant; experiment 2, lot 2
Method: as §1

human α4β7 integrin [6] = molecular target: T1, human α4β7 integrin; assay: flow cytometry competition on HuT 78 cells; competitor biotinylated murine Act-1 held constant; experiment 3, lot 2
Method: as §1

human α4β7 integrin [7] = molecular target: T1, human α4β7 integrin; assay: flow cytometry competition on HuT 78 cells; competitor biotinylated murine Act-1 held constant; experiment 4, lot 2
Method: as §1

human α4β7 integrin [8] = molecular target: T1, human α4β7 integrin; assay: flow cytometry competition on HuT 78 cells; competitor biotinylated murine Act-1 held constant; experiment 5, lot 2
Method: as §1

human α4β7 integrin [9] = molecular target: T1, human α4β7 integrin; assay: flow cytometry competition on HuT 78 cells; competitor biotinylated murine Act-1 held constant; mean of 5 experiments
Method: as §1

human α4β7 integrin [10] = molecular target: T1, human α4β7 integrin; assay: flow cytometry on HuT 78 cells, transient COS-7 expression

Binder	IC50: concentration which inhibited by 50% the adhesion of RPMI 8866 cells to human MAdCAM-1-Ig chimera (human α4β7 integrin [1]) [µg/mL]	IC50 (human α4β7 integrin [2]) [nM]	EC50 (human α4β7 integrin [3]) [µg/mL]	IC50 (human α4β7 integrin [4]) [nM]	IC50 (human α4β7 integrin [5]) [nM]	IC50 (human α4β7 integrin [6]) [nM]	IC50 (human α4β7 integrin [7]) [nM]	IC50 (human α4β7 integrin [8]) [nM]	IC50 (human α4β7 integrin [9]) [nM]	binding result (human α4β7 integrin [10])
B1	0.0018	6.3	0.1	7.57	10.9	6.02	4.91	10.2	7.94	–
B2	–	–	–	–	–	–	–	–	–	binds
